# Values joined by “and” are separate entries in the source; they are usually repeats but may differ in a detail not shown here. Equal entries are not always repeated.
# T1: PlGF (Placental GF) (UniProt P49763-2 21-149, limits assumed)
# T1 sequence (looked up): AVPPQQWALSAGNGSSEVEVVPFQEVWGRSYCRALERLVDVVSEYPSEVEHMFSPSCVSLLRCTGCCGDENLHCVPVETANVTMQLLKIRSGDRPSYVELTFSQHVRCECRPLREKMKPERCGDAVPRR
# B1: AB010 (antibody, human IgG1, lambda, V domains shown)
# VH: QVQLVQSGAEVKKPGASVKVSCKASGYTFTSYDINWVRQATGQGLEWMGWMNPNSGNTGYAQKFQGRVTMTRNTSISTAYMELSSLRSEDTAVYYCARDPYYYYYGMDVWGQGTTVTVSS
# VL: QSVLTQPPSVSAAPGQKVTISCSGSSSNIENNHVSWYQQLPGTAPKLLIYDNNKRPSGIPDRFSGSKSGTSATLGITGLQTGDEADYYCETWDTSLSAGRVFGGGTKLTVLG
# notes: also called anti-IGF1,2 parent antibody
# B2: AB016 (antibody, human IgG1, kappa, V domains shown)
# VH: EVQLVESGGGLVQPGGSLRLSCAASGFSFSSEPISWVRQAPGKGLEWVSSITGKNGYTYYADSVKGRFTISADTSKNTAYLQMNSLRAEDTAVYYCARWGKKVYGMDVWGQGTLVTVSS
# VL: DIQMTQSPSSLSASVGDRVTITCRASQSISSYLAWYQQKPGKAPKLLIYGASSRASGVPSRFSGSGSGTDFTLTISSLQPEDFATYYCQQYMSVPITFGQGTKVEIKR
# notes: also called AB016VH; AB016VL
# B3: DVD491 (bispecific antibody, human IgG1, kappa)
# heavy: not shown
# light: DIQMTQSSSYLSVSLGGRVTITCKASDHINNWLAWYQQKPGNAPRLLISGATSLETGVPSRFSGSGSGKDYTLSITSLQTEDVATYYCQQYWSIPLTFGAGTKLELKRTVAAPDIQMTQSPSSLSASVGDRVTITCRASQVIRRSLAWYQQKPGKAPKLLIYAASNLASGVPSRFSGSGSGTDFTLTISSLQPEDFATYYCQQSNTSPLTFGQGTKVEIKRTVAAPSVFIFPPSDEQLKSGTASVVCLLNNFYPREAKVQWKVDNALQSGNSQESVTEQDSKDSTYSLSSTLTLSKADYEKHKVYACEVTHQGLSSPVTKSFNRGEC
# notes: DVD-Ig; N-term; AB072 (DLL4), C-term; AB071 (VEGF); HC linker short, LC linker short; also called DVD-Ig DVD491; DVD491H/DVD491L
# B4: DVD034 (HGF (seq. 1) N-terminal / RON (seq. 1) C-terminal DVD-Ig) (bispecific antibody, human IgG1, kappa)
# heavy: not shown
# light: DIQMTQSPSSVSASVGDRVTITCRASQGISSWLAWYQQKPGKAPNLLIYEASSLQSGVPSRFGGSGSGTDFTLTISSLQPEDFATYYCQQANGFPWTFGQGTKVEIKRTVAAPDVVMTQSPLSLPVTPGEPASISCRSSQSLLHSNGFNYVDWYLQKPGQSPHLLIYFGSYRASGVPDRFSGSGSGTDFTLKISRVEAEDVGVYYCMQALQTPPWTFGQGTKVEIRRTVAAPSVFIFPPSDEQLKSGTASVVCLLNNFYPREAKVQWKVDNALQSGNSQESVTEQDSKDSTYSLSSTLTLSKADYEKHKVYACEVTHQGLSSPVTKSFNRGEC
# notes: also called DVD034H/DVD034L
# B5: DVD513 (bispecific antibody, human IgG1, kappa)
# heavy: not shown
# light: QAVVTQESALTTSPGETVTLTCRSSTGAVTTSNYANWVQEKPDHLFTGLIGGTNNRAPGVPARFSGSLIGDKAALTITGAQTEDEAIYFCALWYSNHWVFGGGTKLTVLGQPKAAPDIQMTQSPSSLSASVGDRVTITCRASQDVSTAVAWYQQKPGKAPKLLIYSASFLYSGVPSRFSGSGSGTDFTLTISSLQPEDFATYYCQQSYTTPPTFGQGTKVEIKRTVAAPSVFIFPPSDEQLKSGTASVVCLLNNFYPREAKVQWKVDNALQSGNSQESVTEQDSKDSTYSLSSTLTLSKADYEKHKVYACEVTHQGLSSPVTKSFNRGEC
# notes: DVD-Ig; N-term; AB073 (DLL4), C-term; AB070 (VEGF); HC linker short, LC linker short; also called DVD-Ig DVD513; DVD513H/DVD513L
# B6: AB012 (antibody, human IgG1, kappa, V domains shown)
# VH: QVQLVESGGGLVKPGGSLRLSCAASGFTFSDYYMSWIRQAPGKGLEWVSYISSSGSTIYYADSVKGRFTISRDNAKNSLYLQMNSLRAEDTAVYYCARDEYNSGWYVLFDYWGQGTLVTVSS
# VL: DIQMTQSPSSVSASVGDRVTITCRASQGISSWLAWYQQKPGKAPNLLIYEASSLQSGVPSRFGGSGSGTDFTLTISSLQPEDFATYYCQQANGFPWTFGQGTKVEIKR
# notes: also called AB012VH; AB012VL
# B7: AB047 (antibody, human IgG1, kappa, V domains shown)
# VH: QVQLQQSGAELVKPGASVKISCKASGYTFTDYYINWVKLAPGQGLEWIGWIYPGSGNTKYNEKFKGKATLTIDTSSSTAYMQLSSLTSEDTAVYFCVRDSPFFDYWGQGTLLTVSS
# VL: DIVLTQSPDSLAVSLGERVTMNCKSSQSLLNSGMRKSFLAWYQQKPGQSPKLLIYWASTRESGVPDRFTGSGSGTDFTLTISSVQAEDVAVYYCKQSYHLFTFGSGTKLEIKR
# notes: also called AB047VH; AB047VL
# B8: DVD045 (bispecific antibody, human IgG1, kappa)
# heavy: not shown
# light: DIQMTQSPSSLSASVGDRVTITCSASQDISNYLNWYQQKPGKAPKVLIYFTSSLHSGVPSRFSGSGSGTDFTLTISSLQPEDFATYYCQQYSTVPWTFGQGTKVEIKRTVAAPDIQMTQSPSSVSASVGDRVTITCRASQGISSWLAWYQQKPGKAPNLLIYEASSLQSGVPSRFGGSGSGTDFTLTISSLQPEDFATYYCQQANGFPWTFGQGTKVEIKRTVAAPSVFIFPPSDEQLKSGTASVVCLLNNFYPREAKVQWKVDNALQSGNSQESVTEQDSKDSTYSLSSTLTLSKADYEKHKVYACEVTHQGLSSPVTKSFNRGEC
# notes: N-terminal VD VEGF, C-terminal VD HGF; also called DVD045H; DVD045L
# B9: DVD045 (VEGF (seq. 1) N-terminal / HGF (seq. 1) C-terminal DVD-Ig, linker set 1) (bispecific antibody, human IgG1, kappa)
# heavy: not shown
# light: B8 light
# notes: also called DVD045H/DVD045L
# B10: DVD508 (VEGF/DLL4 DVD-Ig) (bispecific antibody, human IgG1)
# VH: EVQLVESGGGLVQPGGSLRLSCAASGFTISDYWIHWVRQAPGKGLEWVAGITPAGGYTYYADSVKGRFTISADTSKNTAYLQMNSLRAEDTAVYYCARFVFFLPYAMDYWGQGTLVTVSSASTKGPEVQLQQSGPELVKPGASVKMSCKASGYTFTSYVINWVKQKPGQGLEWIGLINPYNDGTKYNEKFKVKATLTSDKSSSTAYMELSSLTSEDSAVYYCASYYYGSRYYFDYWGQGTTLTVSS
# VL: DIQMTQSPSSLSASVGDRVTITCRASQDVSTAVAWYQQKPGKAPKLLIYSASFLYSGVPSRFSGSGSGTDFTLTISSLQPEDFATYYCQQSYTTPPTFGQGTKVEIKRTVAAPSVFIFPPDIQMTQSSSYLSVSLGGRVTITCKASDHINNWLAWYQQKPGNAPRLLISGATSLETGVPSRFSGSGSGKDYTLSITSLQTEDVATYYCQQYWSIPLTFGAGTKLELKR
# notes: HC linker short, LC linker long; also called DVD508H; DVD508L
# B11: DVD033 (RON (seq. 1) N-terminal / HGF (seq. 1) C-terminal DVD-Ig) (bispecific antibody, human IgG1, kappa)
# heavy: not shown
# light: DVVMTQSPLSLPVTPGEPASISCRSSQSLLHSNGFNYVDWYLQKPGQSPHLLIYFGSYRASGVPDRFSGSGSGTDFTLKISRVEAEDVGVYYCMQALQTPPWTFGQGTKVEIRRTVAAPDIQMTQSPSSVSASVGDRVTITCRASQGISSWLAWYQQKPGKAPNLLIYEASSLQSGVPSRFGGSGSGTDFTLTISSLQPEDFATYYCQQANGFPWTFGQGTKVEIKRTVAAPSVFIFPPSDEQLKSGTASVVCLLNNFYPREAKVQWKVDNALQSGNSQESVTEQDSKDSTYSLSSTLTLSKADYEKHKVYACEVTHQGLSSPVTKSFNRGEC
# notes: also called DVD033H/DVD033L
# B12: AB011 (antibody, human IgG1, kappa, V domains shown)
# VH: EVQLLESGGGLVQPGGSLRLSCTASGFTFSSYAMNWVRQAPGKGLEWVSAISGSGGTTFYADSVKGRFTISRDNSRTTLYLQMNSLRAEDTAVYYCAKDLGWSDSYYYYYGMDVWGQGTTVTVSS
# VL: DIQMTQFPSSLSASVGDRVTITCRASQGIRNDLGWYQQKPGKAPKRLIYAASRLHRGVPSRFSGSGSGTEFTLTISSLQPEDFATYYCLQHNSYPCSFGQGTKLEIKR
# B13: AB062 (anti-ErbB3 (seq. 1) parent antibody) (antibody, human IgG1, kappa, V domains shown)
# VH: QVQLQQWGAGLLKPSETLSLTCAVYGGSFSGYYWSWIRQPPGKGLEWIGEINHSGSTNYNPSLKSRVTISVETSKNQFSLKLSSVTAADTAVYYCARDKWTWYFDLWGRGTLVTVSS
# VL: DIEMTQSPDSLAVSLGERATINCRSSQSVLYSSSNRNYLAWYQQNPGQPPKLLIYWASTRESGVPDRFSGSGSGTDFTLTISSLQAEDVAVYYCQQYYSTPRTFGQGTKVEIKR
# B14: DVD532 (VEGF/DLL4 DVD-Ig) (bispecific antibody, human IgG1)
# VH: EVQLVESGGGLVQPGGSLRLSCAASGFTISDYWIHWVRQAPGKGLEWVAGITPAGGYTYYADSVKGRFTISADTSKNTAYLQMNSLRAEDTAVYYCARFVFFLPYAMDYWGQGTLVTVSSASTKGPEVQLQQSGPELEKPGASVKISCKASGYSFTGYNMNWVKQSNGKSLEWIGNIDPYFGGTNYNQKFKGKATLTVDKSSSTAYMQLKSLTSEDSAVYYCARNYDYDGGCFDYWGQGTTLTVSS
# VL: DIQMTQSPSSLSASVGDRVTITCRASQDVSTAVAWYQQKPGKAPKLLIYSASFLYSGVPSRFSGSGSGTDFTLTISSLQPEDFATYYCQQSYTTPPTFGQGTKVEIKRTVAAPSVFIFPPQAVVTQESALTTSPGETVTLTCRSSTGAVTTSNYANWVQEKPDHLFTGLIGGTNNRAPGVPARFSGSLIGDKAALTITGAQTEDEAIYFCALWYSNHWVFGGGTKLTVLG
# notes: HC linker short, LC linker long; also called DVD532H; DVD532L
# Tests used:
# [1] = target: T2, IGF-I (UniProt P05019 49-118); experiment: Biacore SPR
# T2 construct: Bought reagent; also called IGF1
# [2] = target: T3, IGF-2 (UniProt P01344 25-91); experiment: Biacore SPR
# T3 construct: Bought reagent
# [3] = target: NRP1 (Neuropilin-1 Npn-1-His tag) (UniProt O14786-2 22-644); experiment: SPR (Biacore); parent antibody
# [4] = target: T4, VEGF (VEGF 1-165 aa, R&D Systems 293-VE-010) (UniProt P15692 27-191); experiment: Direct bind ELISA, VEGF coated on plate; VEGF domain C-term., HC short/LC short
# T4 construct: bought reagent; also called vascular endothelial growth factor
# [5] = target: T5, recombinant human HGF (human, UniProt P14210 32-728); experiment: competition ELISA: DVD-Ig co-incubated with 2 nM soluble c-Met Fc on coated HGF (competitor c-Met Fc)
# T5 construct: The target there is entered as this HGF; also called hepatocyte growth factor
# [6] = target: T6, HGF (UniProt P14210 32-728); experiment: SPR (Biacore); parent antibody
# [7] = target: T1, PlGF (Placental GF); experiment: SPR (Biacore); parent antibody
# [8] = target: T6, HGF; experiment: SPR (Biacore); C-terminal VD
# [9] = target: T7, DLL4 (DLL4 ECD/His tag, R&D Systems 1506-D4-050) (UniProt Q9NR61 27-529); experiment: Direct bind ELISA on DLL4; DLL4 domain C-term., HC short, LC long
# T7 construct: extracellular domain; not shown: His tag
# [10] = target: T8, IGF1R ECD (UniProt P08069 31-935, limits assumed); experiment: Biacore SPR
# T8 construct: extracellular domain; Bought reagent
# [11] = target: T9, ErbB3 on A431 cells (human, UniProt P21860 20-1342); experiment: cell-based or functional assay
# [12] = target: T9, ErbB3 on A431 cells; experiment: cell-based or functional assay; remark: listed apart in the source
# T6 sequence (P14210 32-728 limits assumed): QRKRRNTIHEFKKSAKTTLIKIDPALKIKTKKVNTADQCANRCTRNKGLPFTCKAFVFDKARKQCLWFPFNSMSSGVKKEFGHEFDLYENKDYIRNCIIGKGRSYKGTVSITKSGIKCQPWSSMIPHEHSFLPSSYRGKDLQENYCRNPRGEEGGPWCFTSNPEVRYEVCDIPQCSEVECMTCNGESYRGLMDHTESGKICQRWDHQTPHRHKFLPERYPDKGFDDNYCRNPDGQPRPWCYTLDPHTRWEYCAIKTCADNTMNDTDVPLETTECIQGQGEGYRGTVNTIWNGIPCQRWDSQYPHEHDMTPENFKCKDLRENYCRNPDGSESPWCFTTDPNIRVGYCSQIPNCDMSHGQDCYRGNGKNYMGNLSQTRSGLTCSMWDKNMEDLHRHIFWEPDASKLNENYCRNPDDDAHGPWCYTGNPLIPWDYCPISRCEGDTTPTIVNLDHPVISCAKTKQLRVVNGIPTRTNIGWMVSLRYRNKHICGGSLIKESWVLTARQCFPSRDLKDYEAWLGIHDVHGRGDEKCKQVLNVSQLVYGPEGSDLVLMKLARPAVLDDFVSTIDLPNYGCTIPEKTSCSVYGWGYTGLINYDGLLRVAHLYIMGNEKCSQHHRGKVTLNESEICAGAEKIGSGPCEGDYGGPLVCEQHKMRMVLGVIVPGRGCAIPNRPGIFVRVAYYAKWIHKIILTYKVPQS
# T5 sequence (P14210 32-728 limits assumed): as above
# T4 sequence (P15692 other isoform, or with tags, fused parts or gaps limits assumed): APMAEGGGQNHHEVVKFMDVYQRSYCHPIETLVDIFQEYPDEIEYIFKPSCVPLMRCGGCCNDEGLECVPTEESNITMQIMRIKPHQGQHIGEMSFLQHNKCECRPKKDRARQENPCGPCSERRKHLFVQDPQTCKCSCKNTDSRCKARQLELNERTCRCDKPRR
binder,measurement,setting,value
B1,Kd,[1],0.388 nM
same,koff,[1],0.00123 s⁻¹
same,kon,[1],3.17e+06 M⁻¹ s⁻¹
same,Kd,[2],0.000423 nM and < 0.000299 nM
same,koff,[2],2.74e-06 s⁻¹ and < 1e-06 s⁻¹
same,kon,[2],6.47e+06 M⁻¹ s⁻¹ and 3.35e+06 M⁻¹ s⁻¹
B2,Kd,[3],2.67 nM
same,koff,[3],0.00039 s⁻¹
same,kon,[3],147000 M⁻¹ s⁻¹
B3,EC50,[4],1250 nM
B4,IC50,[5],0.34 nM
B5,EC50,[4],58.5 nM
B6,Kd,[6],< 0.0284 nM
same,koff,[6],0.000284 s⁻¹
same,kon,[6],> 1e+07 M⁻¹ s⁻¹
B7,Kd,[7],0.0285 nM
same,koff,[7],0.000108 s⁻¹
same,kon,[7],3.8e+06 M⁻¹ s⁻¹
B8,Kd,[8],0.901 nM
same,koff,[8],0.000166 s⁻¹
same,kon,[8],184000 M⁻¹ s⁻¹
B9,IC50,[5],> 100 nM
B10,EC50,[9],0.61 nM
B11,IC50,[5],8.7 nM
B12,Kd,[10],0.848 nM
same,koff,[10],6.21e-05 s⁻¹
same,kon,[10],73200 M⁻¹ s⁻¹
B13,Inhibition Of EGFR Phosphorylation (% Inhibition At 60 nM Ab/DVD),[11],0%
same,Inhibition Of ErbB3 Phosphorylation (% Inhibition At 60 nM Ab/DVD),[11],72%
same,Inhibition Of A431 Proliferation (% Inhibition At 2.4 nM Ab/DVD),[12],14%
same,Inhibition Of A431 Proliferation (% Inhibition At 21.6 nM Ab/DVD),[12],27%
B14,EC50,[9],1.43 nM

# — patent publication US20100260668A1 (published 2010)
